Results as given in patent US20230080224A1 (AGENCY FOR SCIENCE TECHNOLOGY AND RESEARCH, published 2023).

T1: human ALPP (recombinant protein) (human, UniProt P05187 23-506)
T1 chain: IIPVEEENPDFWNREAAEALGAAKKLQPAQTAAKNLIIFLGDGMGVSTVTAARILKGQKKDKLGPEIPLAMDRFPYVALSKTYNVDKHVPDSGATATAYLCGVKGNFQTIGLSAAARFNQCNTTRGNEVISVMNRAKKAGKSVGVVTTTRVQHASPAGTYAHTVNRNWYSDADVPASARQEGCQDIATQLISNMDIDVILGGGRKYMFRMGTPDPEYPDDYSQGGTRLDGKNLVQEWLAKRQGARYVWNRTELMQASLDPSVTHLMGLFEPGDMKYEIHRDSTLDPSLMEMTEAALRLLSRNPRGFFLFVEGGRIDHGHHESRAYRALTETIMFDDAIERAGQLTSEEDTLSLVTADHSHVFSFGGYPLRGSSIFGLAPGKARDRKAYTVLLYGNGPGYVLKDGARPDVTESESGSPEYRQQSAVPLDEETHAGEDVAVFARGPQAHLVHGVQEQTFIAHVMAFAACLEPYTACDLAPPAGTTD

T2: human ALPPL2 (recombinant protein) (human, UniProt P10696 20-503)
T2 chain: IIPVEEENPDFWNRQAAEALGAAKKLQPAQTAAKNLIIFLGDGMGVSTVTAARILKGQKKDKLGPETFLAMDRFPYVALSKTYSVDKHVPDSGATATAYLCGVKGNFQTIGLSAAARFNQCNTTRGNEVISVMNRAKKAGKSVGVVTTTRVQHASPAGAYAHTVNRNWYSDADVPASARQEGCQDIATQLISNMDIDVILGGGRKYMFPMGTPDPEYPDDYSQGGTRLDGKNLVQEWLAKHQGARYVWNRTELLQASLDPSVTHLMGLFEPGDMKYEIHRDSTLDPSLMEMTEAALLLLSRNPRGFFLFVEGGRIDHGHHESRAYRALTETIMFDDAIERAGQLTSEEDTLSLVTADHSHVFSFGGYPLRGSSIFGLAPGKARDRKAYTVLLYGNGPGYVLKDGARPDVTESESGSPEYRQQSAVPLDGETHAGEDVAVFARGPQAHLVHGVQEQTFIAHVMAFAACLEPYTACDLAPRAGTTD

T3: ALPI (screening and SPR/ELISA protein) (UniProt P09923 20-503, limits assumed)
T3 sequence (looked up): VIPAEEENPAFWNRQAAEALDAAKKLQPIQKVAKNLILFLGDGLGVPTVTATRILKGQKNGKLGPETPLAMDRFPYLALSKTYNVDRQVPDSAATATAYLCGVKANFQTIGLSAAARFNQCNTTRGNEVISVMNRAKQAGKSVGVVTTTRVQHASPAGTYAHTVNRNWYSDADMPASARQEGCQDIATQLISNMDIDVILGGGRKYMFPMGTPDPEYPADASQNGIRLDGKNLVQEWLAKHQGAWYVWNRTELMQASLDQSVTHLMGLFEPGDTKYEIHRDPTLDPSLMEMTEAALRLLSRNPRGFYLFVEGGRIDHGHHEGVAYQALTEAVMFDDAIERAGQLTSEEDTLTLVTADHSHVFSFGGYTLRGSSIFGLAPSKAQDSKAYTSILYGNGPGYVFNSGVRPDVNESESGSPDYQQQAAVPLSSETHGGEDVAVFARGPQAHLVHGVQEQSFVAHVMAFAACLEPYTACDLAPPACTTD


Key:
[1] = target: human ALPP (recombinant protein) (human, UniProt P05187 23-506, limits assumed); test: SPR, Biacore T200, ligand captured by streptavidin on CM5 chip, antibody as analyte
Procedure: (§1) Select clones (C4, C15, C131, C12, C18, C36 and C53) were humanized by grafting the CDRs to a human IgG1 framework. […] Surface plasmon resonance was studied using Biacore T200. Ligands (e.g. ALPPL2 or ALPP) were immobilized on biosensors CM5 chips captured with the streptavidin. Ligands-loaded sensors were then incubated with different concentrations of analyte (recombinant expressed humanized antibody clones) to measure affinity.

[2] = target: T4, human ALPPL2 (recombinant protein) (human, UniProt P10696 20-503, limits assumed); test: as above
T4 construct: biotinylated where captured on streptavidin
Procedure: as §1

[3] = target: T1, human ALPP (recombinant protein); test: SPR
[4] = target: T2, human ALPPL2 (recombinant protein); test: SPR
[5] = target: T2, human ALPPL2 (recombinant protein); test: BLI; single concentration
[6] = target: T3, ALPI (screening and SPR/ELISA protein); test: screen of rabbit B-cell clones by ELISA and FACS
Source text: (§2) Specific clones were screened and identified by ELISA and high throughput flow cytometry (FIG. 3). Rabbit kidney cells were transfected with either truncated (for ELISA screen) or full-length (for FACS screen) ALPI and ALPPL2.

[7] = target: T4, human ALPPL2 (recombinant protein); test: screen of rabbit B-cell clones by ELISA and FACS
Source text: as §2

[8] = target: T5, human ALPPL2 expressed on cells (human, UniProt P10696 20-503); test: immunohistochemistry on FFPE ALPPL2+ve cell lines and tumor tissues
T5 construct: whole, on cells; also called placental-like alkaline phosphatase
Procedure: To enable development of a companion diagnostic, the IHC activity of the antibodies was evaluated (FIG. 5). Antigen retrieval by Proteinase-K digestion, but not heat mediated antigen retrieval, enabled detection. C36, C45 and C130 enabled detection in ALPPL2+ve cell lines (SCH) and formalin fixed paraffin embedded (FFPE) human tumor tissues by IHC. […] This is also indicative the optimal therapeutic window of these antibodies in the clinic.

binding result [1]	binding result [2]	Kd [3] [nM]	Kd [4] [nM]	Kd [5] [nM]	binding result [6]	binding result [7]	binding result [8]	Binder
–	–	–	–	1.6	no binding	binds	binds	AB1C36 (antibody, V domains shown, Rabbit antibody cloned from a single B cell) VH: QSLEESGGDLVKPGASLTLTCTASGFSFSSGYNICWVRQAPGKGLELIACIYTSSSGSTYYASWAKGRFTISKTSSTTVTLQMTSLTVADTATYFCARGEAYYAYGYVGYAYYHGAFDPWGPGTLVTVSS VL: DIVMTQTPASVEAGVGGTVTIKCQASHSISKYFSWYQQKIGQPPKLLIYEASTLASGVPSRFKGSGSGTQFTLTISDLECADAATYYCQSYYYGTSSSYAFGGGTEVVVK
binds	binds	0.526	0.144	–	–	–	–	humanized C18 (antibody, human IgG1, V domains shown, CDRs grafted to a human IgG1 framework; recombinant; also called hC18) VH: EVQLVESGGGLVQPGGSLRLSCAASGFSFSSYWTCWVRQAPGKGLEWLGCTDGGSSGDTYYATWAKGRFTISRDNSKNTLYLQMNSLRAEDTAVYYCARNLITWDLWGQGTLVTVSS VL: DIQMTQSPSSLSASVGDRVTITCQASESVYNNNQLSWYQQKPGKVPKLLIYWASKLASGVPSRFSGSGSGTDFTLTISSLQPEDVATYYCAGYKSSITDGNAFGQGTKVEIK
–	–	–	–	0.001	no binding	binds	binds	AB2C130 (antibody, V domains shown, Rabbit antibody cloned from a single B cell) VH: QSLEESGGDLVKPGASLTLTCTASGFSFSSGYWICWVRQAPGKGLEWIACIYTGVGATYYASWAKGRFTISKTSSTTVTLQMTSLTAADTATYFCARDFGGSSGFYFNLWGPGTLVTVSS VL: FELTQTPSSVEAAVGATVTIKCQASQSISNALAWYQQKPGQPPKLLIYSASTLESGVPSRFKGSGSGTEFTLTISDLECADAATYYCQNYYGSTSSSYGVAFGGGTEVVVK
–	–	–	–	–	no binding	binds	binds	AB1C45 (antibody, V domains shown, Rabbit antibody cloned from a single B cell) VH: QERLEESGGGLVQPEGSLTLTCTASGFSFSSSYYMCWVRQAPGKGMEWIGCIYTGNDDTWYASWAKGRFTVSKTSSTTVTLQMTSLTATDTATYFCARGLSPIDLWGPGTLVTVSS VL: IVMTQTPSSKSVPVGDTVTINCQASESIYNNNNLGWYQQKPGQPPKLLIYWASTLASGVPSRFKGSGSGTQFTLTISDVECDDAATYYCAGYKSRTTDGSAFGGGTEVVVK

The next lines start with the binder.

Binder	binding result [1]	binding result [2]	Kd [3] [nM]	Kd [4] [nM]	Kd [5] [nM]	binding result [6]	binding result [7]	binding result [8]
humanized C15 (antibody, human IgG1, V domains shown, CDRs grafted to a human IgG1 framework; recombinant; also called hC15) VH: EVQLVESGGGLVQPGGSLRLSCAASGFSFSSSYYMCWVRQAPGKGLEWIACIYTTYGGTWYASWAKGRFTISRDNSKNTLYLQMNSLRAEDTAVYYCARSSISDVTYFNLWGQGTLVTVSS VL: DIQMTQSPSSLSASVGDRVTITCQASQSISNYLAWYQQKPGKVPKLLIYRASTLESGVPSRFSGSGSGTDFTLTISSLQPEDVATYYCQSYYDNNNYAFGQGTKVEIK	binds	binds	–	–	–	–	–	–
humanized C12 (antibody, human IgG1, V domains shown, CDRs grafted to a human IgG1 framework; recombinant; also called hC12) VH: EVQLVESGGGLVQPGGSLRLSCAASGFSFSSSYWISWVRQAPGKGLEWIACIAIGSSGTTYYASWAKGRFTISRDNSKNTLYLQMNSLRAEDTAVYYCARSGDGYTYVELWGQGTLVTVSS VL: DIQMTQSPSSLSASVGDRVTITCQASQSISSYLAWYQQKPGKVPKLLIYRASTLASGVPSRFSGSGSGTDFTLTISSLQPEDVATYYCQNYYDIDDSDNTFGQGTKVEIK	binds	binds	0.235	0.08	–	–	–	–
